Results from PMC7356358 (Biomolecules, 2020).
Read-outs that look alike come from different tables or passages of the source.

Columns and labels:
PfHsp70-1 = assay: Interaction of PfHsp40 with PfHsp70-1 by MP-SPR; format: binding, Plasmodium falciparum
KPf = settings: MP-SPR, PfHsp40 over immobilized KPf, three runs
Description: The analysis was conducted both in the absence and presence of 5 mM of ATP/ADP. The ligand and analyte pairs were swapped, and the data generated were analyzed after global fitting. Association was allowed for 2 min, and dissociation was monitored for 8 min. Data analysis was conducted using TraceDrawer software version 1.8 (Ridgeview Instruments).

DnaK = DnaK (Escherichia coli, UniProt P0A6Y8); settings: MP-SPR, PfHsp40 over immobilized DnaK, three runs
DnaK, sequence (P0A6Y8 whole entry): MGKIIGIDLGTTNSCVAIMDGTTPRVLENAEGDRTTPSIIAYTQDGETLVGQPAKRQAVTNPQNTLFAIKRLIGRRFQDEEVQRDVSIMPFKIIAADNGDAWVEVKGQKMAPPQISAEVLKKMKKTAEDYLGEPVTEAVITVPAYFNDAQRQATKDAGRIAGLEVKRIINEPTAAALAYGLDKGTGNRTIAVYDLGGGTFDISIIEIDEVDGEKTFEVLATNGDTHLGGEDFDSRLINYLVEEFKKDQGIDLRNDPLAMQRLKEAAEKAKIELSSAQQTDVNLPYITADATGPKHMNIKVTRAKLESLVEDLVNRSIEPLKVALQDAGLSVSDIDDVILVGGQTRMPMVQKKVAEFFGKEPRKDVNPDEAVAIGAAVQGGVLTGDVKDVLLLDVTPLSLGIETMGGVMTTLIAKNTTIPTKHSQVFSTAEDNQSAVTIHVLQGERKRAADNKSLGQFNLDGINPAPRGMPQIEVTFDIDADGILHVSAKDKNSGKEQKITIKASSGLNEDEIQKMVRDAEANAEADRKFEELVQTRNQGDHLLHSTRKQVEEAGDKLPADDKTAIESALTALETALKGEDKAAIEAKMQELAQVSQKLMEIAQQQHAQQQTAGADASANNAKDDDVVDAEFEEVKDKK

[1] = ATPase activity (released inorganic phosphate); format: biochemical; settings: PfHsp40 preparation alone, non-ATPase control
Description: Hsp70 proteins at final concentration of 0.4 μM were each incubated for 5 min in buffer HKMD (10 mM HEPES-KOH pH 7.5, 100 mM KCl, 2 mM MgCl2 and 0.5 mM DTT). The reaction was initiated by the addition of ATP at various concentrations (0–5 mM) and samples were analyzed every 30 min for 4 h.

KPf, sequence (P11144 405-631 limits assumed): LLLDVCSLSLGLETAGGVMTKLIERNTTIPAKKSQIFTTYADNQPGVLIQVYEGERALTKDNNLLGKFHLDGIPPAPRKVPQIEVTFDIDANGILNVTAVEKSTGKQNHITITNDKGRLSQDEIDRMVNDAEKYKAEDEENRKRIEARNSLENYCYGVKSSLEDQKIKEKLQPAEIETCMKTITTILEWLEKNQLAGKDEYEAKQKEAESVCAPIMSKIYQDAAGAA
PfHsp70-1, sequence (P11144 1-630 limits assumed): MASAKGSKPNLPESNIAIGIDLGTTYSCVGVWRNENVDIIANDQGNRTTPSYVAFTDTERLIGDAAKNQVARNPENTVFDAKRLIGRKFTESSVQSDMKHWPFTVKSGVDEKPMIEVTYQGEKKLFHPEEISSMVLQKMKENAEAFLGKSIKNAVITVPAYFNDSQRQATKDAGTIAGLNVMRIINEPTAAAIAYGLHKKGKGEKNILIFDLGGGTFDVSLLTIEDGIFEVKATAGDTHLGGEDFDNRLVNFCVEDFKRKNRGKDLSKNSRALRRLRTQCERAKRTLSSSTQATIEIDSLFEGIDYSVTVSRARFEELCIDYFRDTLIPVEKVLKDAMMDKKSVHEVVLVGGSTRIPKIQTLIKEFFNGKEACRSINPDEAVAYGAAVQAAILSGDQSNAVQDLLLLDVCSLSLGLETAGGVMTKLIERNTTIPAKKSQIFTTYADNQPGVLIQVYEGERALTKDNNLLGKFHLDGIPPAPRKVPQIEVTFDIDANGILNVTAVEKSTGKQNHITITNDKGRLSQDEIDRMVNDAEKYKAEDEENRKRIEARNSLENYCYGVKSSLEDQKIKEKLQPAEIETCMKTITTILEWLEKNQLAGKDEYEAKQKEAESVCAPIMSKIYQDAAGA

B1: PfHsp40: P. falciparum type I Hsp40 (PF3D7_1437900), co-chaperone of PfHsp70-1 (protein)
chain: MFFSSGFPFDSMGGQQARRKREVNNNKFYEVLNLKKNCTTDEVKKAYRKLAIIHHPDKGGDPEKFKEISRAYEVLSDEEKRKLYDEYGEEGLENGEQPADATDLFDFILNAGKGKKKRGEDIVSEVKVTLEQLYNGATKKLAISKDIICTNCEGHGGPKDAKVDCKQCNGRGTKTYMRYHSSVLHQTEVTCNTCRGKGKIFNEKDKCANCKGMCVLKTRKIIEVYIPKGAPNKHKIVFNGEADEKPNVITGNLVVILNEKQHPVFRREGIDLFMNYKISLYESLTGFVAEVTHLDERKILVNCTNSGFIRHGDIREVLDEGMPTYKDPFKKGNLYITFEVEYPMDLIITNENKEVLKILKKQNEVEKKYDLENSELEVVSCSPVDKEYIKVRVTKQQQQQQQEAYDDEDHQPEMEGGRVACAQQ
modifications: left off: His6, N-terminal, state not stated
- Ka (PfHsp70-1; PfHsp40 over immobilized PfHsp70-1, + 5 mM ADP, three runs): 1.53 (±0.03) × 10^3 Ms^−1
- Ka (PfHsp70-1; PfHsp40 over immobilized PfHsp70-1, no nucleotide, three runs): 1.33 (±0.03) × 10^3 Ms^−1
- Ka (PfHsp70-1; analyte PfHsp40 0-2000 nM over immobilized PfHsp70-1, + 5 mM ATP, global fit, mean (SD) of three runs): 1.81 (±0.01) × 10^2 Ms^−1
- Ka (KPf; + 5 mM ADP): 1.36 (±0.26) × 10^2 Ms^−1
- Ka (KPf; + 5 mM ATP): 1.72 (±0.02) × 10^2 Ms^−1
- Ka (KPf; no nucleotide): 1.24 (±0.04) × 10^4 Ms^−1
- Ka (DnaK; + 5 mM ADP): 1.16 (±0.06) × 10^2 Ms^−1
- Ka (DnaK; + 5 mM ATP): 1.22 (±0.02) × 10^2 Ms^−1
- Ka (DnaK; no nucleotide): 1.12 (±0.02) × 10^2 Ms^−1
- independent basal ATPase activity [1]: no detectable
